Measured values taken from IntAct's records for PubMed 20534488.

B1: Ras-related protein Rab-5A (Homo sapiens), P20339-1 (parent)
chain: MASRGATRPNGPNTGNKICQFKLVLLGESAVGKSSLVLRFVKGQFHEFQESTIGAAFLTQTVCLDDTTVKFEIWDTAGQERYHSLAPMYYRGAQAAIVVYDITNEESFARAKNWVKELQRQASPNIVIALSGNKADLANKRAVDFQEAQSYADDNSLLFMETSAKTSMNVNEIFMAIAKKLPKNEPQNPGANSARGRGVDLTEPTQPTRNQCCSN
B2: Ras-related protein Rab-5C (Homo sapiens), P51148 (parent)
chain: MAGRGGAARPNGPAAGNKICQFKLVLLGESAVGKSSLVLRFVKGQFHEYQESTIGAAFLTQTVCLDDTTVKFEIWDTAGQERYHSLAPMYYRGAQAAIVVYDITNTDTFARAKNWVKELQRQASPNIVIALAGNKADLASKRAVEFQEAQAYADDNSLLFMETSAKTAMNVNEIFMAIAKKLPKNEPQNATGAPGRNRGVDLQENNPASRSQCCSN
B3: Ras-related protein Rab-5C (Homo sapiens), P51148 (parent)
chain: B2 chain
partner: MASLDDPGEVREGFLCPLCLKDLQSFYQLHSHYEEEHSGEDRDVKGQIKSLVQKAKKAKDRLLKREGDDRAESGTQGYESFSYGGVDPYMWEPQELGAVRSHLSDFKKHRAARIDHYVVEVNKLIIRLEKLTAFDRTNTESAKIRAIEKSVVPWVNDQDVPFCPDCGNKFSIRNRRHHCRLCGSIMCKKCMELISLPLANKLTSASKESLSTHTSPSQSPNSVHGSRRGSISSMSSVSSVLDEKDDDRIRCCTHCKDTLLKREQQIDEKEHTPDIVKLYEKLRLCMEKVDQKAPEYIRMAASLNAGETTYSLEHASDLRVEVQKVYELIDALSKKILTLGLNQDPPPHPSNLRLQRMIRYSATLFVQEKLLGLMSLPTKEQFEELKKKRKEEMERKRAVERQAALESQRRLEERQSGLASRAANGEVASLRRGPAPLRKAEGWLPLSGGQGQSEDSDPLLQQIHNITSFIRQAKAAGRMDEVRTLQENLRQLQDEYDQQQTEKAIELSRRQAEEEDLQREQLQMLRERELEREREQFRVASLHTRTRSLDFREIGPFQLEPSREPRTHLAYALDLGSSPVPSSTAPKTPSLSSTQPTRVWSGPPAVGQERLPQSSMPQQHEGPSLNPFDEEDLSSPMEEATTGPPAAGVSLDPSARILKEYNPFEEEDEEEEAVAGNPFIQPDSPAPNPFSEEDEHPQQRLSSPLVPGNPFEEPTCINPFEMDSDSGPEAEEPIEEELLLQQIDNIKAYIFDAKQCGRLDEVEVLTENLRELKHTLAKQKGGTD

Variants of: B1
Settings: with eea1_human EEA1, Q15075
Chain of eea1_human EEA1, Q15075 (Q15075 whole entry): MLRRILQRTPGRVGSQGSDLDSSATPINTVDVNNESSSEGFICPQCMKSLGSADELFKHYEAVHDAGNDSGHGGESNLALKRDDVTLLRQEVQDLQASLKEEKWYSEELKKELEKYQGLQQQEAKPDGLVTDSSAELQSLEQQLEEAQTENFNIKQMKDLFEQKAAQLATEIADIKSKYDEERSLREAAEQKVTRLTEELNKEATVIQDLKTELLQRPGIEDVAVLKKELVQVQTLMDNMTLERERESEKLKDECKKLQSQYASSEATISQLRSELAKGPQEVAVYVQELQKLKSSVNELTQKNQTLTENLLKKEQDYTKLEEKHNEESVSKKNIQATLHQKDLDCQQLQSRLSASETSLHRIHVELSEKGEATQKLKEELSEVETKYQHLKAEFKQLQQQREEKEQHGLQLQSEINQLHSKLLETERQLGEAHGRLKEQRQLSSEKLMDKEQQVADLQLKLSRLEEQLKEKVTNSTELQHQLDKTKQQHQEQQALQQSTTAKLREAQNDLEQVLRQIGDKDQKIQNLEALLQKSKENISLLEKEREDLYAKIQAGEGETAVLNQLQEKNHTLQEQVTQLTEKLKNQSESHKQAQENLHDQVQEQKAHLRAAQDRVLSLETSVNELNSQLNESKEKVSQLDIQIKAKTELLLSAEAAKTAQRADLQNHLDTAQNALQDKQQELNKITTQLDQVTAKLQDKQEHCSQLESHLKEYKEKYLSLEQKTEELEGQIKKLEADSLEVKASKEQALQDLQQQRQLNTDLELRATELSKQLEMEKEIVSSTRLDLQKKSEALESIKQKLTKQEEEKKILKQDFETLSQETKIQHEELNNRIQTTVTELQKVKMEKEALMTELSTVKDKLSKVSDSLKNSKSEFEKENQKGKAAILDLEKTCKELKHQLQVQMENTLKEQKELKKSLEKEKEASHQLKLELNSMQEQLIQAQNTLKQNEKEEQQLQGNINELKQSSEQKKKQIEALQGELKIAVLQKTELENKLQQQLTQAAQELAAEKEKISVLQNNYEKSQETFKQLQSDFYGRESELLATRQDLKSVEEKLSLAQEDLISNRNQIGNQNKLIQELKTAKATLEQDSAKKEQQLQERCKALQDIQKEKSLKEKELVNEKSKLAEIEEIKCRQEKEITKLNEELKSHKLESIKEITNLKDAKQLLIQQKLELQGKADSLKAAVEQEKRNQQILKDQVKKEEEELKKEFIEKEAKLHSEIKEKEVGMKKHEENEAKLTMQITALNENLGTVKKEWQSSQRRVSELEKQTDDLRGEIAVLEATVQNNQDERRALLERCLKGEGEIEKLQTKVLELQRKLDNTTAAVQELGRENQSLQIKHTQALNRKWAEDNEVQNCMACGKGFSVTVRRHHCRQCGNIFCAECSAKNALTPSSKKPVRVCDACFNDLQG

| effect of a mutation on the interaction | Variant |
| --- | --- |
| with no effect | Q79L |

Variants of: B2
Settings: with eea1_human EEA1, Q15075

| effect of a mutation on the interaction | Variant |
| --- | --- |
| disrupting interaction strength | G55Q |
| disrupting interaction strength | A57E |
| disrupting interaction strength | M89S |
| disrupting interaction strength | M89A |

The next lines start with the variant.

| Variant | effect of a mutation on the interaction |
| --- | --- |
| A57D | decreasing interaction strength |
| A57S | disrupting interaction strength |

Variants of: B3
Settings: with rbns5_human RBSN

| effect of a mutation on the interaction | Variant |
| --- | --- |
| with no effect | Y49N |
| disrupting interaction strength | A57D |
| with no effect | Q61K |
| with no effect | L59M |
| with no effect | Q50I |
| disrupting interaction strength | K43E |
| decreasing interaction strength | S52P |

The next lines start with the variant.

| Variant | effect of a mutation on the interaction |
| --- | --- |
| A57S | decreasing interaction strength |
| E51N | decreasing interaction strength |
| A94S | increasing interaction strength |
| H84R | decreasing interaction strength |
| Y83F | with no effect |
| E73L | with no effect |
| E48P | with no effect |
